Test results reported in patent US20240228542A1, “LYTIC DOMAIN FUSION CONSTRUCTS, CHECKPOINT INHIBITORS, AND METHODS OF MAKING AND USING SAME” (A28 Therapeutics Inc., priority 2020, published 2024).

Key:
AN3-CA = test: Cytotoxicity in AN3-CA endometrial cancer cells; type: cell-based; settings: AN3-CA endometrial cancer cell line; read-out: IC50 in Human Cancer Cell Lines
Experimental: (§1) MDA-MB-435S.luc cells were grown in Leibovitz's L 15 medium, 10% fetal bovine serum, 0.01 mg/ml bovine insulin, 100 IU/ml penicillin, 100 microg/ml streptomycin. The cells were cultured in tight closed flasks. The incubations were conducted using 96 well plates at 10,000 cells per well. Cells were typically seeded into 96 well plates and media was replaced after 48 hours of incubation. Each assay was conducted at increasing concentrations of 0, 0.001, 0.01, 0.05, 0.1, 0.5, 1, 2, 5, 10 and 100 micromolar doses of lytic peptide-binding domain conjugate. Each lytic peptide-binding domain conjugate provided in lyophilized form and was freshly dissolved in saline and added to cells. The duration of incubation was typically 24 h, and cell viability assays were conducted using formazan conversion assays (MTT assay). Controls contained saline or 0.1% triton as reference for 0 and 100% cell death, respectively.
(§2) To ascertain the IC50 of various fusion constructs on different human cancer cell lines compared to cisplatinum, IC50 of fusion constructs were evaluated as in Table 3.

OVCAR-3 = test: Cytotoxicity in OVCAR-3 ovarian cancer cells; type: cell-based; settings: OVCAR-3 ovarian cancer cell line; read-out: IC50 in Human Cancer Cell Lines
Experimental: as §1, §2

SKOV-3 = test: Cytotoxicity in SKOV-3 ovarian cancer cells; type: cell-based; settings: SKOV-3 ovarian cancer cell line; read-out: IC50 in Human Cancer Cell Lines
Experimental: as §1, §2

LNCaP = test: Cytotoxicity in LNCaP prostate cancer cells; type: cell-based; settings: LNCaP prostate cancer cell line; read-out: IC50 in Human Cancer Cell Lines
Experimental: as §1, §2

OVCAR-3 xenograft = test: OVCAR-3 ovarian cancer xenograft; type: in vivo, Nu/Nu mice; settings: for tumor volume: OVCAR-3 xenograft, CLIP71 2 mg/kg, cisplatinum 10 mg/kg
Experimental: In brief, Nu/Nu female mice, inbred strain, age 5 weeks (Harlan-Sprague Dawley) were injected subcutaneously with a NIH:OVCAR-3 cells/Matrigel suspension (4.6×10^6 cells/mouse). Treatment was started on day 33 after tumor cell injection when the tumors were established and continued on days 41 and 47. The doses for the 3 weekly injections were 0.02, 0.2 and 2 mg/kg body weight, given as a single bolus intravenous injection via lateral tail vein administered once a week for three weeks on days 33, 41 and 47. Necropsies were conducted on day 52. Data are presented as mean […]SEM. Arrows show dosing.
A group of 9 tumor bearing mice was sacrificed on day 33 and served as baseline group. All mice were necropsied 51-52 days after tumor cell injection. Tumor volumes and bodyweights were recorded twice weekly during the study, as well as overall veterinarian examination of mice was conducted.
Primary tumors, liver, kidney, pancreas, heart, lung, and spleen were collected, fixed in formalin and prepared for histological evaluation. Tumor weights were measured at necropsy, part of the tumors were frozen at −80° C. for LH/CG and LHRH receptor assay determination.
As a biomarker for drug activity, CA 125 was determined in serum, collected from each individual mouse at necropsy using a Enzyme Linked Immunoassay for quantitative determination of ovarian cancer antigen CA125 (Assay kit Genway, Biotech, Inc. San Diego, CA, Catalog #40-052-115009, #BC-1013 according to the manufacturer).
LHRH receptor levels were assessed from formalin fixed tumors. Quantitative immunoperoxidase image analysis was conducted with the Ventana Image Analysis System (VIAS) adjunctive computer assisted image analysis system functionally connected to an interactive microscope (Axio Imager). The quantitative analysis was conducted with the program for quantification of Her2/neu receptor that included morphometric and colorimetric analysis. Receptor status results were reported as percentage of cells showing positive staining of the LHRH receptors under the following criteria: 0 non-immunoreactive, 1+: 1-25% positive, 2+: 26-50% positive, 3+: 51-75% positive cells.

MDA-MB-435S cells = settings: reported; cited from earlier work
[1] = molecular target: T1, luteinizing hormone-releasing hormone (LHRH) receptor, on human cancer cell lines (human) (UniProt P30968); test: cell-based or functional assay
T1 sequence (looked up): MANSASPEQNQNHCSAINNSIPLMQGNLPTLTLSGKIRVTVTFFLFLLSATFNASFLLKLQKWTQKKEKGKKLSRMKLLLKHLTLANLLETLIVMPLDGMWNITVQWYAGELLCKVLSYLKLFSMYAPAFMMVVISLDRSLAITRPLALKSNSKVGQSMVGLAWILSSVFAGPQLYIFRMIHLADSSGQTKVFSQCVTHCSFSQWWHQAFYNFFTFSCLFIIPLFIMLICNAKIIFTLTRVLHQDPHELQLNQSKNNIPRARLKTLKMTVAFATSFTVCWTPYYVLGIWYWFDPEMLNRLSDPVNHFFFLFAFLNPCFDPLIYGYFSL

[2] = molecular target: T2, luteinizing hormone-releasing hormone receptor (LHRH-R), on murine cancer cell lines (mouse) (UniProt Q01776); test: cell-based or functional assay
T2 sequence (looked up): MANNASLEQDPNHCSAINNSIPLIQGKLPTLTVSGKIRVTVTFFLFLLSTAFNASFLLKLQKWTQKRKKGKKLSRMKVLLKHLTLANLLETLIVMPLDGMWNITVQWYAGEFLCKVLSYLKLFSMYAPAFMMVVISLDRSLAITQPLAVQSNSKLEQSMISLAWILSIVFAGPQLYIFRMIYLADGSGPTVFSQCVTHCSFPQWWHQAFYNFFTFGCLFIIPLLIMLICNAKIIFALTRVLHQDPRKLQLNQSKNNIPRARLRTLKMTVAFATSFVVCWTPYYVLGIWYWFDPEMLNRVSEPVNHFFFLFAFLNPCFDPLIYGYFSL

[3] = molecular target: chorionic gonadotrophin (CG) receptor, on MDA-MB-435S.luc cells (human) (UniProt P22888); test: cell-based or functional assay

With `N.N.[Cl][Pt][Cl]` [Cisplatinum, reference compound] the IC50 (AN3-CA) was 11800 ± 160 nM, the IC50 (OVCAR-3) was 184000 nM and the IC50 (SKOV-3) was 321000 ± 10000 nM. The IC50 (LNCaP) was 19900 ± 1400 nM, the tumor weights (OVCAR-3 xenograft; OVCAR-3 xenograft at necropsy) was “not effective in reducing tumor weights” and the tumor volume (OVCAR-3 xenograft) was “no reduction in tumor volume”. For the same compound, the tumor volume (OVCAR-3 xenograft; listed as cisplatinum) was “tumor growth was observed”.

In the case of `COc1cccc2c1C(=O)c1c(O)c3c(c(O)c1C2=O)C[C@@](O)(C(=O)CO)C[C@@H]3O[C@H]1C[C@H](N)[C@H](O)[C@H](C)O1` [doxorubicin], the “time to destroy human melanoma cells in vitro” value (MDA-MB-435S cells) is listed as 4 h.

For Phor18-LHRH (338613) (peptide), the IC50 of cytotoxicity (MTT), MDA-MB-435S cells, 0.5 hour [1] was 1200 nM, the IC50 of cytotoxicity (MTT), MDA-MB-435S cells, 1 hour [1] was 600 nM and the IC50 of cytotoxicity (MTT), OVCAR-3 cells, increasing incubation time, value 1 of 7 [1] was 6700 nM. For the same compound, the IC50 of cytotoxicity (MTT), OVCAR-3 cells, increasing incubation time, value 2 of 7 [1] was 5600 nM, the IC50 of cytotoxicity (MTT), OVCAR-3 cells, increasing incubation time, value 3 of 7 [1] was 5300 nM and the IC50 of cytotoxicity (MTT), OVCAR-3 cells, increasing incubation time, value 4 of 7 [1] was 1600 nM. The IC50 of cytotoxicity (MTT), OVCAR-3 cells, increasing incubation time, value 5 of 7 [1] was 1500 nM, the IC50 of cytotoxicity (MTT), OVCAR-3 cells, increasing incubation time, value 6 of 7 [1] was 500 nM and the IC50 of cytotoxicity (MTT), OVCAR-3 cells, increasing incubation time, value 7 of 7 [1] was 500 nM. It also gave an IC50 of cell viability, murine ovarian cancer cell lines, 72 hours [2] of 1000 to 1300 nM, an IC50 of cytotoxicity (CellTiter Glo), EMT-6 cells, 4 h [2] of 5800 nM and an IC50 of cytotoxicity (CellTiter Glo), EMT-6 cells, 8 h [2] of 5700 nM. For the same compound, the IC50 of cytotoxicity (CellTiter-Glo), 2C12 cells, 24 h [2] was 1020 nM, the IC50 of cytotoxicity (CellTiter-Glo), ID8 cells, 24 h [2] was 1370 nM and the IC50 of cytotoxicity (CellTiter-Glo), IF5 cells, 24 h [2] was 1010 nM. It also gave an IC50 of cytotoxicity (CellTiter-Glo), IG10 cells, 24 h [2] of 1030 nM and an IC50 of cytotoxicity (CellTiter-Glo), cell line printed as 242, 24 h [2] of 1380 nM.

Phor21-βCG-ala (323033) (peptide) gave an IC50 of cytotoxicity, MDA-MB-435S.luc cells (carry CG receptors) [3] of 2300 nM.
